In article PMC6219580, “Conversion of an amide to a high-energy thioester by Staphylococcus aureus sortase A is powered by variable binding affinity for calcium” (Scientific Reports, 2018):
Where no end group is shown, it is not given here.

Target: T1, Staphylococcus aureus sortase A C184A mutant (residues 60-206) (Staphylococcus aureus, UniProt Q2FV99 60-206, C184A)
T1 construct: Sortase A, Staphylococcus aureus, residues 60-206 (SrtAΔN59) with the active-site mutation C184A; Uniformly 15N-labelled for the NMR titrations; gene cloned into a PET3a vector; also called SrtA C184A; active-site mutant C184A; source: E. coli BL21 (Rosetta), purified (anion exchange, Superdex75 gel filtration)
T1 sequence (looked up): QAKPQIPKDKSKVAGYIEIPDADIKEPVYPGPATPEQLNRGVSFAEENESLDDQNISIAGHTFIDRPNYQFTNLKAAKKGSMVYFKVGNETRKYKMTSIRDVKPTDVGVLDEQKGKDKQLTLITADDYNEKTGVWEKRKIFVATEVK
Assay: NMR titration; 15N-HSQC titration of the protein-Ca2+ complex at increased concentration with QALPETG-NH2; linear chemical shift changes only, far from saturation
Conditions: both partners purified

B1: QALPETG-NH2 (peptide)
peptide: QALPETG-NH2
notes: substrate peptide with the canonical LPXTG sorting motif; also called substrate peptide; source: synthetic peptide, bought: KE Biochem Co. Ltd (China)
Kd: > 50 mM
